The record followed here is the supplement of paper PMC7877785.

A short description of the data set: self-splicing fitness, log relative to wild type (ln ratio); higher = more splicing; Tetrahymena group I intron in knt gene, E. coli kanamycin selection, DiMSum; sequences stand for … in CUCUCU…GGAGGGAAAAGUUAUCAGGCAUGCACCUGGUAGCUAGUCUUUAAACCAAUAGAUUGCAUCGGUUUAAAAGGCAAGACCGUCAAAUUGCGGGAAAGGGGUCAACAGCCGUUCAGUACCAAGUCUCAGGGGAAACUUUGAGAUGGCCUUGCAAAGGGUAUGGUAAUAAGCUGACGGACAUGGUCCUAACCACGCAGCCAAGUCCUAAGUCAACAGAUCUUCUGUUGAUAUGGAUGCAGUUCACAGACUAAAUGUCGGUCGGGGAAGAUGUAUUCUUCUCAUAAGAUAUAGUCGGACCUCUCCUUAAUGGGAGCUAGCGGAUGAAGUGAUGCAACACUGGAGCCGCUGGGAACUAAUUUGUAUGCGAAAGUAUAUUGAUUAGUUUUGGAGUACUCGUGGUCG
Summed up:
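A randomised library covering all eight P1ex-region intron nucleotides was built with the intron in the knt kanamycin-resistance gene on pET-22b(+) and held in E. coli BL21(DE3). Cells were grown overnight at 37°C or 30°C on LB agar, with or without 25 μg/mL kanamycin, plus 100 μg/mL carbenicillin, 50 μM IPTG and 0.2% rhamnose, and pooled colonies were amplicon-sequenced on an Illumina HiSeq 2500. DiMSum fitness is the error-weighted combination of wild-type-normalised replicate fold changes, kanamycin versus none.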

± gives the uncertainty stated by the source.

As for UCUAAGCAAUAUUACGGACC, the “self-splicing fitness (ln)” value was -1.71 ± 0.24 (30 °C) and -1.99 ± 0.32 (37 °C).
For CCGCAGCAAUAUUACGAAGA, the “self-splicing fitness (ln)” value reads like this: (30 °C) -2.83 ± 0.26; (37 °C) -2.57 ± 0.24.
Taken in the same sequence, the figures for AUAAAGCAAUAUUACGCUAU were -1.28 ± 0.089 and -0.692 ± 0.098.
On to UGACAGCAAUAUUACGUCGC, for which the “self-splicing fitness (ln)” value (37 °C) was -1.64 ± 0.45.
For GGCUAGCAAUAUUACGGCGU, the “self-splicing fitness (ln)” value was -0.171 ± 0.086 (30 °C) and -0.201 ± 0.094 (37 °C).
For GACGAGCAAUAUUACGACUU, the “self-splicing fitness (ln)” value (30 °C) is -0.586 ± 0.17 and the “self-splicing fitness (ln)” value (37 °C) was found to be 0.25 ± 0.19.
As for GCACAGCAAUAUUACGUUCU, the “self-splicing fitness (ln)” value was -0.579 ± 0.054 (30 °C) and -0.524 ± 0.068 (37 °C).
Taken in the same sequence, the figures for CGCGAGCAAUAUUACGCAAG were -2.92 ± 0.27 and -2.91 ± 0.43.
In the case of ACGCAGCAAUAUUACGAUCA, the “self-splicing fitness (ln)” value reads like this: (30 °C) -1.66 ± 0.099; (37 °C) -1.26 ± 0.093.
Taken in the same sequence, the figures for GAGCAGCAAUAUUACGGUAC were -2.73 ± 0.14 and -0.416 ± 0.11.
In the case of ACAUAGCAAUAUUACGUGAA, the “self-splicing fitness (ln)” value by setting is: (30 °C) -2.13 ± 0.093; (37 °C) -1.18 ± 0.1.
As to ACGCAGCAAUAUUACGUAAC, the “self-splicing fitness (ln)” value by setting is: (30 °C) -3.99 ± 0.22; (37 °C) -2.37 ± 0.23.
With GAAAAGCAAUAUUACGCUCG, the “self-splicing fitness (ln)” value (30 °C) was -0.762 ± 0.11 and the “self-splicing fitness (ln)” value (37 °C) was -0.303 ± 0.15.
On to ACUAAGCAAUAUUACGCGAA, for which the “self-splicing fitness (ln)” value by setting is: (30 °C) -1.57 ± 0.13; (37 °C) -1.22 ± 0.17.
Taken in the same sequence, the figures for CAGCAGCAAUAUUACGUCAG were -0.347 ± 0.05 and -0.265 ± 0.06.
Turning to ACGCAGCAAUAUUACGGAAU, the “self-splicing fitness (ln)” value is, setting by setting: (30 °C) -2.27 ± 0.1; (37 °C) -2.07 ± 0.14.
Taken in the same sequence, the figures for UCUAAGCAAUAUUACGUCAG were -1.23 ± 0.073 and -0.611 ± 0.08.
With GUGAAGCAAUAUUACGGCAG, the “self-splicing fitness (ln)” value is -2.32 ± 0.13 (30 °C) and -1.06 ± 0.16 (37 °C).
Taken in the same sequence, the figures for GCCGAGCAAUAUUACGAUAU were -2.51 ± 0.12 and -1.46 ± 0.11.
Taken in the same sequence, the figures for AACGAGCAAUAUUACGUCAC were -4.01 ± 0.23 and -1.83 ± 0.22.
On to UUCAAGCAAUAUUACGUAUC, for which the “self-splicing fitness (ln)” value is -4.16 ± 0.24 (30 °C) and -1.85 ± 0.16 (37 °C).
Taken in the same sequence, the figures for UCACAGCAAUAUUACGUUAC were -3.74 ± 0.23 and -2.06 ± 0.16.
Taken in the same sequence, the figures for AUCAAGCAAUAUUACGACGA were -1.26 ± 0.095 and -0.128 ± 0.11.
Taken in the same sequence, the figures for AAACAGCAAUAUUACGUUAA were -2.66 ± 0.11 and -0.816 ± 0.092.
With AGUAAGCAAUAUUACGCGUU, the “self-splicing fitness (ln)” value is, setting by setting: (30 °C) -3.44 ± 0.17; (37 °C) -2.8 ± 0.19.
GGCAAGCAAUAUUACGUGCC: where the note is “37 °C”, the “self-splicing fitness (ln)” value is -1.47 ± 0.43.
For the sequence UUGUAGCAAUAUUACGUUGG, the “self-splicing fitness (ln)” value (30 °C) was -2.77 ± 0.18 and the “self-splicing fitness (ln)” value (37 °C) is -1.98 ± 0.21.
As for GGUCAGCAAUAUUACGCAGA, the “self-splicing fitness (ln)” value (37 °C) is -2.72 ± 0.33.
With GUUAAGCAAUAUUACGUCGC, the “self-splicing fitness (ln)” value is, setting by setting: (30 °C) -1.61 ± 0.21; (37 °C) -1.83 ± 0.28.
In the case of GAGAAGCAAUAUUACGCUCA, the “self-splicing fitness (ln)” value is -1.29 ± 0.16 (30 °C) and -1.13 ± 0.15 (37 °C).
On to GACUAGCAAUAUUACGAGCG, for which the “self-splicing fitness (ln)” value (30 °C) was -1.57 ± 0.1 and the “self-splicing fitness (ln)” value (37 °C) is -0.592 ± 0.12.
With AAAGAGCAAUAUUACGCGAU, the “self-splicing fitness (ln)” value reads like this: (30 °C) -2.63 ± 0.35; (37 °C) -2.04 ± 0.34.
On to UAGGAGCAAUAUUACGGAUC, for which the “self-splicing fitness (ln)” value runs as follows: (30 °C) -3.44 ± 0.41; (37 °C) -0.998 ± 0.39.
Taken in the same sequence, the figures for CUAGAGCAAUAUUACGGCUU were -2.92 ± 0.24 and -1.94 ± 0.26.
For GAAUAGCAAUAUUACGCACA, in that order: -0.518 ± 0.15 and 1.18 ± 0.18.
Taken in the same sequence, the figures for CCCGAGCAAUAUUACGAUGA were -3.45 ± 0.43 and -2.4 ± 0.28.
Regarding CCUCAGCAAUAUUACGCGGU, the “self-splicing fitness (ln)” value by setting is: (30 °C) -3.37 ± 0.19; (37 °C) -2.98 ± 0.33.
Taken in the same sequence, the figures for CUAAAGCAAUAUUACGGCGG were -0.171 ± 0.064 and 0.0633 ± 0.081.
In the case of CGCAAGCAAUAUUACGUUGC, the “self-splicing fitness (ln)” value is -3.41 ± 0.17 (30 °C) and -3.62 ± 0.29 (37 °C).
Taken in the same sequence, the figures for GAACAGCAAUAUUACGUAUU were -1.57 ± 0.063 and -0.99 ± 0.075.
Taken in the same sequence, the figures for CGUAAGCAAUAUUACGAGUU were -3.38 ± 0.17 and -2.6 ± 0.23.
Taken in the same sequence, the figures for CUCUAGCAAUAUUACGCGCG were -3.15 ± 0.27 and -2.86 ± 0.28.
On to GGAAAGCAAUAUUACGAUAA, for which the “self-splicing fitness (ln)” value runs as follows: (30 °C) -1.32 ± 0.14; (37 °C) -0.198 ± 0.16.
For GUAAAGCAAUAUUACGUAAU, in that order: -1.58 ± 0.073 and -0.314 ± 0.098.
CAACAGCAAUAUUACGUCAG: the “self-splicing fitness (ln)” value was -0.334 ± 0.053 (30 °C) and -0.55 ± 0.066 (37 °C).
Turning to CGAAAGCAAUAUUACGUGGC, the “self-splicing fitness (ln)” value reads like this: (30 °C) -0.949 ± 0.12; (37 °C) -3.21 ± 0.32.
Take AGGAAGCAAUAUUACGCAAG: the “self-splicing fitness (ln)” value (30 °C) was -3.11 ± 0.22 and the “self-splicing fitness (ln)” value (37 °C) is -1.45 ± 0.13.
Taken in the same sequence, the figures for CCUUAGCAAUAUUACGGCCG were -1.85 ± 0.23 and -0.27 ± 0.35.
Consider CUCAAGCAAUAUUACGCUUG, for which the “self-splicing fitness (ln)” value (30 °C) was -3.58 ± 0.18 and the “self-splicing fitness (ln)” value (37 °C) was -2.38 ± 0.23.
Consider UAAGAGCAAUAUUACGCUUC, for which the “self-splicing fitness (ln)” value (30 °C) was -3.71 ± 0.25 and the “self-splicing fitness (ln)” value (37 °C) was -2.46 ± 0.25.
Taken in the same sequence, the figures for AACCAGCAAUAUUACGGCAG were -1.02 ± 0.058 and -0.17 ± 0.08.
AAGAAGCAAUAUUACGGACA: the “self-splicing fitness (ln)” value is -1.66 ± 0.092 (30 °C) and -0.389 ± 0.096 (37 °C).
For GUAUAGCAAUAUUACGCCUA, in that order: -1.64 ± 0.27 and -0.116 ± 0.22.
CGCAAGCAAUAUUACGUUAC: the “self-splicing fitness (ln)” value by setting is: (30 °C) -4 ± 0.22; (37 °C) -3.23 ± 0.27.
Turning to UAACAGCAAUAUUACGGGAC, the “self-splicing fitness (ln)” value was -4.36 ± 0.17 (30 °C) and -1.89 ± 0.13 (37 °C).
For GAAUAGCAAUAUUACGUCUG, in that order: -1.85 ± 0.075 and -0.674 ± 0.082.
As to CACAAGCAAUAUUACGGAUC, the “self-splicing fitness (ln)” value is, setting by setting: (30 °C) -4.63 ± 0.39; (37 °C) -2.09 ± 0.13.
Taken in the same sequence, the figures for CCUUAGCAAUAUUACGGAUG were -1.72 ± 0.064 and -0.271 ± 0.08.
For GGUUAGCAAUAUUACGUUGG, the “self-splicing fitness (ln)” value runs as follows: (30 °C) -4.01 ± 0.34; (37 °C) -1.72 ± 0.18.
For CACAAGCAAUAUUACGCCCU, in that order: -3.12 ± 0.19 and -0.633 ± 0.13.
For UUUAAGCAAUAUUACGCACG, in that order: -0.565 ± 0.16 and -0.685 ± 0.22.
For AAGUAGCAAUAUUACGAAAC, in that order: -3.53 ± 0.27 and -1.45 ± 0.29.
Regarding AAUAAGCAAUAUUACGUAGA, the “self-splicing fitness (ln)” value (30 °C) is -1.51 ± 0.11 and the “self-splicing fitness (ln)” value (37 °C) was -0.998 ± 0.13.
Taken in the same sequence, the figures for GGCAAGCAAUAUUACGGAGU were -2.62 ± 0.12 and -0.542 ± 0.1.
On to GAUUAGCAAUAUUACGCGUA, for which the “self-splicing fitness (ln)” value reads like this: (30 °C) -1.01 ± 0.1; (37 °C) -0.855 ± 0.091.
With AAAUAGCAAUAUUACGACCU, the “self-splicing fitness (ln)” value reads like this: (30 °C) -0.0682 ± 0.092; (37 °C) 0.265 ± 0.13.
For AUCCAGCAAUAUUACGUGCU, the “self-splicing fitness (ln)” value by setting is: (30 °C) -2.83 ± 0.17; (37 °C) -2.88 ± 0.31.
For AACCAGCAAUAUUACGUCGU, in that order: -1.26 ± 0.046 and -0.25 ± 0.058.
In the case of CUAAAGCAAUAUUACGUGUC, the “self-splicing fitness (ln)” value was -3.88 ± 0.2 (30 °C) and -2.85 ± 0.25 (37 °C).
In the case of UAGGAGCAAUAUUACGUCUU, the “self-splicing fitness (ln)” value is, setting by setting: (30 °C) -3.16 ± 0.34; (37 °C) -0.955 ± 0.23.
For ACAAAGCAAUAUUACGACAG, in that order: -1.34 ± 0.066 and -0.8 ± 0.084.
For the sequence ACGUAGCAAUAUUACGAUCC, the “self-splicing fitness (ln)” value (30 °C) was -1.03 ± 0.17 and the “self-splicing fitness (ln)” value (37 °C) is -0.00168 ± 0.18.
On to AGGAAGCAAUAUUACGCGAU, for which the “self-splicing fitness (ln)” value (30 °C) is -3.28 ± 0.28 and the “self-splicing fitness (ln)” value (37 °C) is -2.11 ± 0.25.
Taken in the same sequence, the figures for CAUCAGCAAUAUUACGCGAG were 0.128 ± 0.083 and -0.05 ± 0.1.
As to CACCAGCAAUAUUACGCGUG, the “self-splicing fitness (ln)” value runs as follows: (30 °C) -3.74 ± 0.16; (37 °C) -2.44 ± 0.13.
